Paper PMC3949714 (PLoS ONE, 2014)

Experiments:
[1] = Biotransformation in homogenised inflamed tissue at pH 5.5 (LC/MS, mean residence time); details: MES pH 5.5, 37°C, 120 min, AUMC/AUC of LC/MS peak intensity
[2] = RP-HPLC retention time (read by the paper as polarity); type: physicochemical; details: water/acetonitrile gradient with 0.1% formic acid, MS TIC detection
Description: An Agilent binary HPLC composing of an Agilent 1100 LC pump, an Agilent 1100 well plate auto-sampler (Agilent Technologies, Santa Clara, CA, USA) and a Jupiter 5 μ (C4, 300 A, 150×2.00 mm, 5 μ) RP HPLC column (Phenomenex, Torrance, CA, USA) were used for separation. The mobile phase flow rate was 200 µl/min and the volume of injection was 20 µL. The separations were performed using a binary solvent gradient; water (Milli-Q; Millipore Corporation, Bedford, MA) which contained 0.1% v/v formic acid was used as the solvent A and acetonitrile (Merck KGaA, Darmstadt, Germany) which contained 0.1% v/v formic acid (Nuplex industries Pty Ltd. (NSW, Australia) was used as the solvent B. The chromatographic separation was achieved using the gradient shown in Table 1.
An API 3000 tandem mass spectrometer equipped with a turbo ion spray was used as the detector. Detection was performed in total ion current (TIC) mode (MS1/Q1), in positive mode, within the range 200–3000 amu. The data were acquired and processed by Analyst 1.5 software (Applied Biosystems, Foster city, CA, USA). Mass spectra were obtained using: declustering potential (DF) of 16 V, focusing potential (FP) of 120 V, Entrance potential (EP) of 10 V, and Ion spray voltage (IS) of 5000 V. Structure identity of fragments was performed using the respective mass/charge (m/z) values of each peptide metabolite. Direct flow injections were carried out using Model 11 plus Harvard Syringe pump (Harvard Apparatus Inc, Holliston, MA, USA).

[3] = incubation of BE 1-31 (115 µM) in rat inflamed tissue homogenate
[4] = incubation of BE 1-31, Jupiter C4 300 A column, 200 µl/min
[5] = incubation of BE 1-11 (115 µM) in rat inflamed tissue homogenate
[6] = incubation of BE 1-13 (115 µM) in rat inflamed tissue homogenate
[7] = incubation of BE 1-17 (115 µM) in rat inflamed tissue homogenate
[8] = incubation of BE 1-11, Jupiter C4 column
[9] = incubation of BE 1-13, Jupiter C4 column
[10] = incubation of BE 1-17, Jupiter C4 column

BE 20-27: beta-endorphin intermediate fragment, residues 20-27 (NAIIKNAY; Beta-endorphin; UniProt P01189 256-263, looked up, fragment)
MRT [1, 3]: 97.1
RT [2, 4]: 16.1 min

BE 29-31: beta-endorphin fragment, residues 29-31 (KGE; Beta-endorphin; UniProt P01189 265-267, looked up, fragment)
RT [2, 4]: 5.4 min

BE 2-9: des-tyrosine beta-endorphin fragment, residues 2-9 (GGFMTSEK; Beta-endorphin; UniProt P01189 238-245, looked up, fragment)
MRT [1, 5]: 17
MRT [1, 6]: 19.8
MRT [1, 7]: 21
MRT [1, 3]: 20
Rt [2, 8]: 15.8 min
Rt [2, 9]: 15.8 min
RT [2, 10]: 15.87 min
RT [2, 4]: 18.38 min

BE 3-16: beta-endorphin fragment, residues 3-16 (GFMTSEKSQTPLVT; Beta-endorphin; UniProt P01189 239-252, looked up, fragment)
MRT [1, 7]: 11
RT [2, 10]: 20.43 min

BE 2-16: des-tyrosine beta-endorphin fragment, residues 2-16 (GGFMTSEKSQTPLVT; Beta-endorphin; UniProt P01189 238-252, looked up, fragment)
MRT [1, 7]: 15.1
RT [2, 10]: 20.43 min

BE 2-13: des-tyrosine beta-endorphin fragment, residues 2-13 (GGFMTSEKSQTP; Beta-endorphin; UniProt P01189 238-249, looked up, fragment)
MRT [1, 6]: 16.4
MRT [1, 7]: 25.5
MRT [1, 3]: 65
Rt [2, 9]: 17.2 min
RT [2, 10]: 17.08 min
RT [2, 4]: 19.96 min

BE 20-24: beta-endorphin intermediate fragment, residues 20-24 (NAIIK; Beta-endorphin; UniProt P01189 256-260, looked up, fragment)
MRT [1, 3]: 98
RT [2, 4]: 16.1 min

BE 5-24: beta-endorphin fragment, residues 5-24 (MTSEKSQTPLVTLFKNAIIK; Beta-endorphin; UniProt P01189 241-260, looked up, fragment)
MRT [1, 3]: 25.1
RT [2, 4]: 19 min

BE 2-12: beta-endorphin fragment, residues 2-12 (GGFMTSEKSQT; Beta-endorphin; UniProt P01189 238-248, looked up, fragment)
MRT [1, 6]: 18.1
Rt [2, 9]: 16.2 min

BE 19-31: beta-endorphin C-terminal fragment, residues 19-31 (KNAIIKNAYKKGE; Beta-endorphin; UniProt P01189 255-267, looked up, fragment)
MRT [1, 3]: 80
RT [2, 4]: 13.67 min

BE 3-14: beta-endorphin fragment, residues 3-14 (GFMTSEKSQTPL; Beta-endorphin; UniProt P01189 239-250, looked up, fragment)
RT [2, 10]: 20.1 min

BE 1-14: beta-endorphin N-terminal fragment, residues 1-14 (YGGFMTSEKSQTPL; Beta-endorphin; UniProt P01189 237-250, looked up, fragment)
MRT [1, 7]: 13.8
RT [2, 10]: 21.13 min

BE 3-13: beta-endorphin fragment, residues 3-13 (GFMTSEKSQTP; Beta-endorphin; UniProt P01189 239-249, looked up, fragment)
MRT [1, 6]: 16.1
Rt [2, 9]: 17.2 min

BE 2-11: des-tyrosine beta-endorphin fragment, residues 2-11 (GGFMTSEKSQ; Beta-endorphin; UniProt P01189 238-247, looked up, fragment)
MRT [1, 5]: 15
MRT [1, 6]: 20.2
MRT [1, 7]: 31.8
MRT [1, 3]: 37
Rt [2, 8]: 15.7 min
Rt [2, 9]: 15.7 min
RT [2, 10]: 15.52 min
RT [2, 4]: 17.5 min

BE 6-16: beta-endorphin fragment, residues 6-16 (TSEKSQTPLVT; Beta-endorphin; UniProt P01189 242-252, looked up, fragment)
MRT [1, 3]: 22.4
RT [2, 10]: 16 min
RT [2, 4]: 18.4 min

BE 3-12: beta-endorphin fragment, residues 3-12 (GFMTSEKSQT; Beta-endorphin; UniProt P01189 239-248, looked up, fragment)
RT [2, 10]: 20.53 min

BE 19-30: beta-endorphin fragment, residues 19-30 (KNAIIKNAYKKG; Beta-endorphin; UniProt P01189 255-266, looked up, fragment)
MRT [1, 3]: 72.2
RT [2, 4]: 14.3 min

BE 3-11: beta-endorphin fragment, residues 3-11 (GFMTSEKSQ; Beta-endorphin; UniProt P01189 239-247, looked up, fragment)
MRT [1, 5]: 14
Rt [2, 8]: 15.4 min
RT [2, 10]: 21.48 min

BE 4-14: beta-endorphin fragment, residues 4-14 (FMTSEKSQTPL; Beta-endorphin; UniProt P01189 240-250, looked up, fragment)
RT [2, 10]: 18.68 min

BE 7-16: beta-endorphin fragment, residues 7-16 (SEKSQTPLVT; Beta-endorphin; UniProt P01189 243-252, looked up, fragment)
RT [2, 10]: 16 min

BE 8-14: beta-endorphin fragment, residues 8-14 (EKSQTPL; Beta-endorphin; UniProt P01189 244-250, looked up, fragment)
RT [2, 10]: 16.27 min

BE 20-29: beta-endorphin fragment, residues 20-29 (NAIIKNAYKK; Beta-endorphin; UniProt P01189 256-265, looked up, fragment)
MRT [1, 3]: 8.4
RT [2, 4]: 14.3 min

BE 1-16: beta-endorphin N-terminal fragment, residues 1-16 (YGGFMTSEKSQTPLVT; Beta-endorphin; UniProt P01189 237-252, looked up, fragment)
MRT [1, 7]: 7.6
MRT [1, 3]: 9.8
RT [2, 10]: 21.38 min
RT [2, 4]: 23.2 min

BE 4-11: beta-endorphin fragment, residues 4-11 (FMTSEKSQ; Beta-endorphin; UniProt P01189 240-247, looked up, fragment)
MRT [1, 5]: 22.7
Rt [2, 8]: 13.8 min

BE 20-31: beta-endorphin C-terminal fragment, residues 20-31 (NAIIKNAYKKGE; Beta-endorphin; UniProt P01189 256-267, looked up, fragment)
MRT [1, 3]: 72.2
RT [2, 4]: 14.3 min

BE 10-24: beta-endorphin fragment, residues 10-24 (SQTPLVTLFKNAIIK; Beta-endorphin; UniProt P01189 246-260, looked up, fragment)
MRT [1, 3]: 11.3
RT [2, 4]: 28.2 min

BE 15-24: beta-endorphin fragment, residues 15-24 (VTLFKNAIIK; Beta-endorphin; UniProt P01189 251-260, looked up, fragment)
MRT [1, 3]: 25.2
RT [2, 4]: 22.44 min

BE 6-14: beta-endorphin fragment, residues 6-14 (TSEKSQTPL; Beta-endorphin; UniProt P01189 242-250, looked up, fragment)
RT [2, 10]: 14.62 min

BE 2-15: beta-endorphin fragment, residues 2-15 (GGFMTSEKSQTPLV; Beta-endorphin; UniProt P01189 238-251, looked up, fragment)
RT [2, 10]: 21.33 min

BE 4-15: beta-endorphin fragment, residues 4-15 (FMTSEKSQTPLV; Beta-endorphin; UniProt P01189 240-251, looked up, fragment)
RT [2, 10]: 20.13 min

BE 7-14: beta-endorphin fragment, residues 7-14 (SEKSQTPL; Beta-endorphin; UniProt P01189 243-250, looked up, fragment)
RT [2, 10]: 14.92 min

BE 4-16: beta-endorphin fragment, residues 4-16 (FMTSEKSQTPLVT; Beta-endorphin; UniProt P01189 240-252, looked up, fragment)
RT [2, 10]: 19.32 min
